The target of test [1] is PLC-γ1 pTyr783 peptide peptide encompassing pTyr783 (Homo sapiens) (UniProt P19174). As to conditions: cited from earlier work.
Test [2] has as its target T1, wild-type PLC-γ1, rat phospholipase C-γ1 residues 21–1215 (rat, UniProt P10686 21-1215).
T1 sequence (looked up): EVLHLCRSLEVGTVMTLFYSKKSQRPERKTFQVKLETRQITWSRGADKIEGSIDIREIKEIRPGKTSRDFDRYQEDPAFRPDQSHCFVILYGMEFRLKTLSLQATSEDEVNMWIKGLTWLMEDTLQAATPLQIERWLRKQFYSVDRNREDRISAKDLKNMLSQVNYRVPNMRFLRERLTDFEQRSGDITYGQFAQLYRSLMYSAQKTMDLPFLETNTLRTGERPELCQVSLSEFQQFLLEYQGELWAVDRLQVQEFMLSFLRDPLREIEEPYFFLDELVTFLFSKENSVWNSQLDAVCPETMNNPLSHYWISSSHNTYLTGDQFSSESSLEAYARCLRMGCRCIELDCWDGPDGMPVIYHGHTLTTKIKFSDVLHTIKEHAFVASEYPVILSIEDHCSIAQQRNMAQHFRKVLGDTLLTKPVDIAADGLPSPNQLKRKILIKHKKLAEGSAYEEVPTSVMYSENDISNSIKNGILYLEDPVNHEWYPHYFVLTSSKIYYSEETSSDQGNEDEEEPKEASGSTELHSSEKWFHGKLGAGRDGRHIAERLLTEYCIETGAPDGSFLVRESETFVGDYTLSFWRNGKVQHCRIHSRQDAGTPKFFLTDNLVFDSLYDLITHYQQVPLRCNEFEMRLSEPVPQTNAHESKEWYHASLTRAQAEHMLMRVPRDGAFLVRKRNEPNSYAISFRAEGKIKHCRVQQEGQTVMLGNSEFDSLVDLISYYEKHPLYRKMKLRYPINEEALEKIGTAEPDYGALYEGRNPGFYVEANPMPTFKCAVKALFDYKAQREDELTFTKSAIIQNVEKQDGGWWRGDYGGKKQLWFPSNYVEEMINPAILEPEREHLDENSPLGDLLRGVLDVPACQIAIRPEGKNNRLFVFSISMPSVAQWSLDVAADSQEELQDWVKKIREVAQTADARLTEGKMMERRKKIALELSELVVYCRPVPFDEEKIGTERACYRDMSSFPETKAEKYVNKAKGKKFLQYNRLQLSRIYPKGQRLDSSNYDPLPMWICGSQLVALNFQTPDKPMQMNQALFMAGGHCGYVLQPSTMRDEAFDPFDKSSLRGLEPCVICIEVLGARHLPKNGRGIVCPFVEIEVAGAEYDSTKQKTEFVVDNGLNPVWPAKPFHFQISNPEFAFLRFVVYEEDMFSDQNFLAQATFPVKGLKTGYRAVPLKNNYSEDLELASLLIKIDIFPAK
As to the kind of experiment: cell-based or functional assay.

For test [3], the target named is T2, PLC-γ1 (D1165H), rat phospholipase C-γ1 residues 21–1215 (rat, UniProt P10686 21-1215, D1165H).
T2 sequence (looked up): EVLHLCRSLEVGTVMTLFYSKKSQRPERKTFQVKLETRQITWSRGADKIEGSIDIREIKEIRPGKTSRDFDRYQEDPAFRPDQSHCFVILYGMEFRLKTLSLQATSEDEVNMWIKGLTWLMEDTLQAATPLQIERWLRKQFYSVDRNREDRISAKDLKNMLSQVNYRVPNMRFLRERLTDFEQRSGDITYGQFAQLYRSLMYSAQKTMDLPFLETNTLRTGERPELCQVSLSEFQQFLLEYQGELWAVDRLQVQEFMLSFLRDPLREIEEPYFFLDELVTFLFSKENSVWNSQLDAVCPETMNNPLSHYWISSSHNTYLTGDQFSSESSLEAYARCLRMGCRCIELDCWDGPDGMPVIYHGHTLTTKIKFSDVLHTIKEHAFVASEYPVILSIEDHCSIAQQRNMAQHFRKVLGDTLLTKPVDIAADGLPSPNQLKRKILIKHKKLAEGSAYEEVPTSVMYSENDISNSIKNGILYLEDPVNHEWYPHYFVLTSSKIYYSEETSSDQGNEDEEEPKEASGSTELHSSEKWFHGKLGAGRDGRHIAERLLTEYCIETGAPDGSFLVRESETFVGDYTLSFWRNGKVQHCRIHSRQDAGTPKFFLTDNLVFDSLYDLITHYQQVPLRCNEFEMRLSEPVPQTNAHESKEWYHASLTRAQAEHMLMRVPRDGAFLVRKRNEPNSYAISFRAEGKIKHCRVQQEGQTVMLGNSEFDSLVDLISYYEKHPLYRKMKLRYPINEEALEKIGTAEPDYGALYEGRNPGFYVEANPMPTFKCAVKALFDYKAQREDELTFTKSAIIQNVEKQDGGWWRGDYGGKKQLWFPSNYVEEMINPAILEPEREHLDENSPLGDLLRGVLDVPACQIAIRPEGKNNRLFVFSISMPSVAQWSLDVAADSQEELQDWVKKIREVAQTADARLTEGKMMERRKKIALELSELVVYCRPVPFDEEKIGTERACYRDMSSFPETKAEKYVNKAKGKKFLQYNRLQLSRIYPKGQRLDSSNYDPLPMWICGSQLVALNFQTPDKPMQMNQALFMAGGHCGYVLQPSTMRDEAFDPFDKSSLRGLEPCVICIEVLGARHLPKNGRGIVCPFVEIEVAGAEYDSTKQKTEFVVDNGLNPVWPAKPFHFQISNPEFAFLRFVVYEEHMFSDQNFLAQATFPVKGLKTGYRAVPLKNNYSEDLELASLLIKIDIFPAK
As to the kind of experiment: cell-based or functional assay.

The target of test [4] is T3, PLC-γ1 (H335A), rat phospholipase C-γ1 residues 21–1215 (rat, UniProt P10686 21-1215, H335A).
T3 construct: phospholipase C-γ1, rat, residues 21–1215, with H335A; source: High Five (Trichoplusia ni) cells, baculovirus, purified (HisTrap IMAC, TEV cleavage, SourceQ, Superdex 200); not shown: His6, N-terminal, cleaved
T3 sequence (looked up): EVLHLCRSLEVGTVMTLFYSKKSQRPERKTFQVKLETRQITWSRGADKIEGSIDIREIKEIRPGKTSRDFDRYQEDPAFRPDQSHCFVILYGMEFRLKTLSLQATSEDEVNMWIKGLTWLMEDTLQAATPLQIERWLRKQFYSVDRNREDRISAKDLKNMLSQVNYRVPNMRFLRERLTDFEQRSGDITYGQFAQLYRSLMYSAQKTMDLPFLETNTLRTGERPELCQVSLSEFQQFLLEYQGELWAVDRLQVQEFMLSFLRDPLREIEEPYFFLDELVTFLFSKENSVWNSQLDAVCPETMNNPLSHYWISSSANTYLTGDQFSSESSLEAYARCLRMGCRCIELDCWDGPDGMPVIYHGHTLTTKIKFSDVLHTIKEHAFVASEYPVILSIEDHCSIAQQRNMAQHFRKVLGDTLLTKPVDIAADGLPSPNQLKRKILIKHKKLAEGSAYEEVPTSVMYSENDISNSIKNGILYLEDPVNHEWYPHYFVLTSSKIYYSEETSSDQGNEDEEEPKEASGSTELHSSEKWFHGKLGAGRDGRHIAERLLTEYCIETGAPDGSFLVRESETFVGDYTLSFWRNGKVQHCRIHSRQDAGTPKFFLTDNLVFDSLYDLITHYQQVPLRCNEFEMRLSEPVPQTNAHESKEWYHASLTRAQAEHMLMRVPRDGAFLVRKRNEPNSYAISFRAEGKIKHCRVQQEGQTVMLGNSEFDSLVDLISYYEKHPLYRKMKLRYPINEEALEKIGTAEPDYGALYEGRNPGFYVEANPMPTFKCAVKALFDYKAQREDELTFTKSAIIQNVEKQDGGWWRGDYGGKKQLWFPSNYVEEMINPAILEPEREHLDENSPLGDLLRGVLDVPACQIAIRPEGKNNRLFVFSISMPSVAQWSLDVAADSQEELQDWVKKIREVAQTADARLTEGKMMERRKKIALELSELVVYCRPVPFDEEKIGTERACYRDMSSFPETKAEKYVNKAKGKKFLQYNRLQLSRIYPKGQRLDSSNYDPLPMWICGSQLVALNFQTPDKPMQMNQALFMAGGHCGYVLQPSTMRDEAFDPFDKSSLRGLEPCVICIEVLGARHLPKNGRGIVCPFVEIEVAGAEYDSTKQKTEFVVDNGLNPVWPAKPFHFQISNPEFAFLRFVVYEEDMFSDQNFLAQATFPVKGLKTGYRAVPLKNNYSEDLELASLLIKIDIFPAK
Kind of test: SEC; PLC-γ1 variant mixed with phosphorylated kinase-inactive FGFR1K (two-fold molar excess of one partner), Superdex 200 GL 10 mm x 300 mm, 20 mM HEPES pH 7.5, 100 mM NaCl, 10 mM MgCl2, 2 mM DTT; fractions by SDS-PAGE and Coomassie; complex of PLC-γ1 (H335A) run again after 8 hr on ice. The conditions noted are these: both partners purified. For orientation: SEC sorts molecules by how far they enter the pores of the column.

Test [5] has as its target T4, PLC-γ1 (H335A+D1165H), rat phospholipase C-γ1 residues 21–1215 (rat, UniProt P10686 21-1215, H335A | D1165H).
T4 construct: phospholipase C-γ1, rat, residues 21–1215, with H335A and D1165H; PDB 6PBC is the cited structure of the parent; also called oncogenic mutant of PLC-γ1; source: High Five (Trichoplusia ni) cells, baculovirus, purified (HisTrap IMAC, TEV cleavage, SourceQ, Superdex 200); not shown: His6, N-terminal, cleaved
T4 sequence (looked up): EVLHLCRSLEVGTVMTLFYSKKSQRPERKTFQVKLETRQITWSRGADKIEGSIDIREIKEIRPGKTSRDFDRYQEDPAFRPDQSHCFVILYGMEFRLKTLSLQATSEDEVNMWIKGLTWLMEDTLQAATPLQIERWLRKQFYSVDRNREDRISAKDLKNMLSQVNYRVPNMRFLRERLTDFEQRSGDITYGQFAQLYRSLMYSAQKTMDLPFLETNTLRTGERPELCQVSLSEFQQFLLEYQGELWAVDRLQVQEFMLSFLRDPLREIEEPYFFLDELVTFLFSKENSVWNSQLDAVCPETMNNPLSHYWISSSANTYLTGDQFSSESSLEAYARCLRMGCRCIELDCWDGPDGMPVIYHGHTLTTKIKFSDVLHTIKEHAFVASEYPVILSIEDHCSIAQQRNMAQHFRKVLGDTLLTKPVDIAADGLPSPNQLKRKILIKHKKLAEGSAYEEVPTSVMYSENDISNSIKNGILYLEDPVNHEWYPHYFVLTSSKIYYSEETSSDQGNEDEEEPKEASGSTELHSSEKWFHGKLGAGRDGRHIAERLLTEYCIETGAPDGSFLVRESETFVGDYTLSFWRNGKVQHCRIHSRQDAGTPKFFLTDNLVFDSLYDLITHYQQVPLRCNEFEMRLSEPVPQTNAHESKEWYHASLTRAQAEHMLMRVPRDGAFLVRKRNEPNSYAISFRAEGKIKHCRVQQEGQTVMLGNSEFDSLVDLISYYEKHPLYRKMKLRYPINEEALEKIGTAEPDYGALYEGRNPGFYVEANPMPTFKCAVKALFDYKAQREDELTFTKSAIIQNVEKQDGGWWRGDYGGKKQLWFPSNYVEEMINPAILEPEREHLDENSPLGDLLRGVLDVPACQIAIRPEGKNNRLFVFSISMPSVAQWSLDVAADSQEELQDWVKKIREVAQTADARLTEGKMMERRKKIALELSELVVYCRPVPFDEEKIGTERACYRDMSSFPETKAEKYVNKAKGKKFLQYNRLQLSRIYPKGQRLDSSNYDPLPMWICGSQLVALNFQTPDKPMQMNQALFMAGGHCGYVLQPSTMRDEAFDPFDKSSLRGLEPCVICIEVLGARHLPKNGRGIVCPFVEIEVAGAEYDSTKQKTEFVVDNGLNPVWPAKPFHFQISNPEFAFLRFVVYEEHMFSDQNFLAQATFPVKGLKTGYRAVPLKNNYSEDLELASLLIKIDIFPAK
The test is described as above. As to conditions: both partners purified.

Broadly, the Kd is the constant that tells how readily two partners part at equilibrium. In the case of “PLC-γ1 cSH2 domain cSH2 (from UniProt P19174)”, the dissociation constant Kd in test [1] was 360 nM.

B1: kinase-inactive kinase domain of human FGFR1 (residues 458–774) phosphorylated at Tyr766 (domain or fragment, UniProt P11362 458-774, looked up)
chain: AGVSEFELPEDPRWELPRDRLVLGKPLGEGCFGQVVLAEAIGLDKDKPNRVTKVAVKMLKSDATEKDLSDLISEMEMMKMIGKHKNIINLLGACTQDGPLYVIVEYASKGNLREYLQARRPPGLEFCFNPSHNPEEQLSSKDLVSCAYQVARGMEYLASKKCIHRDLAARNVLVTEDNVMKIADFGLARDIHHIDFFKKTTNGRLPVKWMAPEALFDRIYTHQSDVWSFGVLLWEIFTLGGSPYPGVPVEELFKLLKEGHRMDKPSNCTNELFMMMRDCWHAVPSQRPTFKQLVEDLDRIVALTSNQEYLDLSMPLD
modifications: phosphotyrosine at 766
notes: fibroblast growth factor receptor 1, human, kinase domain residues 458–774, six tyrosines changed to phenylalanine; Phosphorylation specifically at Tyr766 confirmed by LC-MS/MS; also called pFGFR1K; phosphorylated FGFR1K; source: High Five cells, baculovirus, purified (HisTrap IMAC, TEV cleavage, Superdex 200); phosphorylated in vitro with His6-tagged kinase-active FGFR1K (Y766F), separated by …
With B1, the “specific lipase activity of PLC-γ1 (10 nM) on XY-69 in PE:PIP2 (80:20) liposomes, pre-incubated with a two-fold molar excess of pFGFR1K, against PLC-γ1 alone” value in test [2] is ~3 fold. In addition, the “basal lipase activity of PLC-γ1 (D1165H) (0.3 nM) on XY-69 in PE:PIP2 (80:20) liposomes with a two-fold molar excess of pFGFR1K, against PLC-γ1 (D1165H) alone” value in test [3] was ~2 fold. The binding result in test [4] and in test [5] was “binds” each time.

Source of the values: publication PMC9203054, “Dynamics of allosteric regulation of the phospholipase C-γ isozymes upon recruitment to membranes” (eLife, 2022).
